The values that follow come from patent US20180118841A1 (published 2018).

Assay [1] concerns the target T1, CTLA-4 (BMS, Orencia) (human).
T1 chain: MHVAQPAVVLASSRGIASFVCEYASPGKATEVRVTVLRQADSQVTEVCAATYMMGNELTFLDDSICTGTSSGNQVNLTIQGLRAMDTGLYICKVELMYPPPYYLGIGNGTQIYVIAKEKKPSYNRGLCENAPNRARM
Kind of assay: cell-based or functional assay.

The target of assay [2] is CD137 on primary human CD8+ T cells (human, UniProt Q07011 24-255). Kind of assay: cell-based or functional assay.
Assay [3] deals with T2, CD137 human/mouse chimera 1554 (human; mouse, UniProt P20334 96-159, limits assumed).
T2 construct: domain: 3B, 4A and 4B; On 293-F cells; Human ranges derived from the printed mouse range; also called 1411
T2 sequence (P20334 other isoform, or with tags, fused parts or gaps mutant limits assumed): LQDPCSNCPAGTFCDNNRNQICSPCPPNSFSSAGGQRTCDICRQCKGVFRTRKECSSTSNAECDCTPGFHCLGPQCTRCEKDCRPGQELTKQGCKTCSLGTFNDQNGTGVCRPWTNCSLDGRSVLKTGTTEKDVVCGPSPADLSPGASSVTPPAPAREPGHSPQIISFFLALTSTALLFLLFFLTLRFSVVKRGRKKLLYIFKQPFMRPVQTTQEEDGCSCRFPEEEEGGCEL
Kind of assay: FACS, 293-F transfectants; MFI/isotype, normalized to full-length CD137. (A flow cytometer gives signals particle by particle.)

Sequence of CD137 on primary human CD8+ T cells (Q07011 24-255 limits assumed): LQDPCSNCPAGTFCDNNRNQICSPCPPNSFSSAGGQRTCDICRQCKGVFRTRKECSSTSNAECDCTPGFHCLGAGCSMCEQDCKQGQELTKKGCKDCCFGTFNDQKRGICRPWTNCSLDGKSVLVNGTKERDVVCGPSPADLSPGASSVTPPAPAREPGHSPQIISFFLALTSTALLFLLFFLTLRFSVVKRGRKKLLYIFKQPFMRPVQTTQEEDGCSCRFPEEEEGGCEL

B1: bispecific OX40/CTLA-4 molecule 1526/1585 (bispecific antibody, human IgG1, kappa)
heavy: not shown
light: DIQMTQSPSSLSASVGDRVTITCRASQSISSYLNWYQQKPGKAPKLLIYAASSLQSGVPSRFSGSGSGTDFTLTISSLQPEDFATYYCQQYGSDSLLTFGQGTKLEIKRTVAAPSVFIFPPSDEQLKSGTASVVCLLNNFYPREAKVQWKVDNALQSGNSQESVTEQDSKDSTYSLSSTLTLSKADYEKHKVYACEVTHQGLSSPVTKSFNRGECSGGGGSGGGGSAPLKIQAYFNETADLPCQFANSQNLSLSELVVFWQDQENLVLNEVYLGKERFDSVDSKYMGRTSFDSDSWTLRLHNLQIKDKGRYQCIIHHKKPTGMINIHQMNSELSVLA
B1: in assay [1], the “Mean IL-2 level (pg/ml) induced at 1.5 nM” value stood at 3200 pg/mL.

B2: anti-CD137 antibody 1204/1205 (antibody, IgG1, V domains shown)
VH: EVQLLESGGGLVQPGGSLRLSCAASGFTFSSYYMGWVRQAPGKGLEWVSGIGSYYGYTGYADSVKGRFTISRDNSKNTLYLQMNSLRAEDTAVYYCARAYYDYNYYYAYFDYWGQGTLVTVSS
VL: DIQMTQSPSSLSASVGDRVTITCRASQSISSYLNWYQQKPGKAPKLLIYAASSLQSGVPSRFSGSGSGTDFTLTISSLQPEDFATYYCQQSVPHYPFTFGQGTKLEIK
notes: Produced as IgG; IgG1 format stated for the T cell assay
Turning to B2, the “Mean IFN-γ (pg/ml), CD8+ T cell assay” value in assay [2] amounted to 64400 pg/mL. Also, the relative binding in assay [3] was 0.73.
